What was measured:
AncSZ = assay: phosphorylation enrichment, bacterial display (enrichment ratio); higher = better substrate or ligand; peptides without Tyr show the background
EPHB1 = EPHB1 (UniProt P54762); assay: as above
EPHB2 = EPHB2 (UniProt P29323); assay: as above
FGFR1 = FGFR1 (UniProt P11362); assay: as above
FGFR3 = FGFR3 (UniProt P22607); assay: as above
Fer (mouse) = assay: as above
Fes = Fes (UniProt P07332); assay: as above
Fyn = Fyn (UniProt P06241); assay: as above
Hck = Hck (UniProt P08631); assay: as above
Jak2 = Jak2 (UniProt O60674); assay: as above
MERTK = MERTK (UniProt Q12866); assay: as above
c-Abl (mouse) = assay: as above
c-Src = assay: as above
Grb2 SH2 = Grb2 SH2 (UniProt P62993); assay: SH2 binding enrichment of the phosphorylated peptide, bacterial display (enrichment ratio); higher = better substrate or ligand; peptides without Tyr show the background
SHP2-C SH2 = assay: as above
c-Src SH2 = assay: as above
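For SH2 binding enrichment of the phosphorylated peptide, bacterial display in this document: peptide library displayed on the E. coli surface as eCPX fusions, selected cells deep-sequenced, score is each peptide's frequency after selection divided by its frequency in the input.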
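For phosphorylation enrichment, bacterial display in this document: 11-residue human phosphosite peptides and single-mutation variants displayed on the E. coli surface, counted by deep sequencing, each peptide's frequency after selection divided by its frequency in the unselected input library; frequency after pTyr selection over input frequency; kinase dosed for 20-30% of maximal phosphorylation in three min.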

FGFR3, sequence (P22607 whole entry, looked up): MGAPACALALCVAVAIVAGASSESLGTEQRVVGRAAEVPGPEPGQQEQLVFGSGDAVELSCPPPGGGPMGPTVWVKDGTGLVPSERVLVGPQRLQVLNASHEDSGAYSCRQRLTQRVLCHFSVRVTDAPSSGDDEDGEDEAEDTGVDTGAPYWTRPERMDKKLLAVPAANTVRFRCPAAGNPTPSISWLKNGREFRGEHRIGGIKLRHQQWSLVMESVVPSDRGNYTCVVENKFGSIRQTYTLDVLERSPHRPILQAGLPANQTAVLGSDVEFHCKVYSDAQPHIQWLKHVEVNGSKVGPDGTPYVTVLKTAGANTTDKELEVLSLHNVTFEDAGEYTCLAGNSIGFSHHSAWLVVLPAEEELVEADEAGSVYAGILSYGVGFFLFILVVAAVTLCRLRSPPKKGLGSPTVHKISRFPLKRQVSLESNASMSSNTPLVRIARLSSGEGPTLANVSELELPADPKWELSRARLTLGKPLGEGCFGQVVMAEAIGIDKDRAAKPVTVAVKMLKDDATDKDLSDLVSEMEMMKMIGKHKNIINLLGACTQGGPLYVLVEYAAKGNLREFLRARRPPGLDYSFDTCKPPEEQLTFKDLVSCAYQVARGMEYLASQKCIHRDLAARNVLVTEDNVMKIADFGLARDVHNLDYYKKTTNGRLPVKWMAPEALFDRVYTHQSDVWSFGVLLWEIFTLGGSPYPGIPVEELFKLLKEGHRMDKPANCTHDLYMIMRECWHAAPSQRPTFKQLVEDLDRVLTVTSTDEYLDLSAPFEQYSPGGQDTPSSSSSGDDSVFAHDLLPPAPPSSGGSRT
Grb2 SH2, sequence (P62993 whole entry, looked up): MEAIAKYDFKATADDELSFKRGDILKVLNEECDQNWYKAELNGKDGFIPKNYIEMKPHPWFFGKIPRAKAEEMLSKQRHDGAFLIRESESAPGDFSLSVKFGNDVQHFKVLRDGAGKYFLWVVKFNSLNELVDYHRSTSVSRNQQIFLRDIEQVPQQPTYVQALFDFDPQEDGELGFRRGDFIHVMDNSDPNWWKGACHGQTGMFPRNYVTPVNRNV
FGFR1, sequence (P11362 whole entry, looked up): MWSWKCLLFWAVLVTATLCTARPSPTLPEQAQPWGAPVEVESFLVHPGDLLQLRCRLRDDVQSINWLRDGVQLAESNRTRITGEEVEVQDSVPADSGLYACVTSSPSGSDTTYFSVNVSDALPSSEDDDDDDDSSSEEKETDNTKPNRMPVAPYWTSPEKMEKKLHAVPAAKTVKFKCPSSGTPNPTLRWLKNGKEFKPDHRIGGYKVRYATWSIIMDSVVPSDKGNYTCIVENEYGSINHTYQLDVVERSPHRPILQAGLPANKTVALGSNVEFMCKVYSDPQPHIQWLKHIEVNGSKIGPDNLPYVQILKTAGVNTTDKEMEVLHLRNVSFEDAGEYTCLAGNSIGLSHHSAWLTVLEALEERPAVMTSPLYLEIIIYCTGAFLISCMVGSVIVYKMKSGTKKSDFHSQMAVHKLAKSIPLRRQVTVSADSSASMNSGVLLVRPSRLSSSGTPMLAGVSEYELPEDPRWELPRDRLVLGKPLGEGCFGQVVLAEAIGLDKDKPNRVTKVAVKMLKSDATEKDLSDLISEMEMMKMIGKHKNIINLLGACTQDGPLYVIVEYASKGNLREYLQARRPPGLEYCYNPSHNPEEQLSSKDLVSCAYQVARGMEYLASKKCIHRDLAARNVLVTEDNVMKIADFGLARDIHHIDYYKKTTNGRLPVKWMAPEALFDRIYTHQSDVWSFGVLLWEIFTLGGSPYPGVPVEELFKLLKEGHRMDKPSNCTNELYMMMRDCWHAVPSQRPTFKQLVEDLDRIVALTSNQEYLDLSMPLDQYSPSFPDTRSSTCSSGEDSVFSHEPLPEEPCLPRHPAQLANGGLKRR
Fyn, sequence (P06241 whole entry, looked up): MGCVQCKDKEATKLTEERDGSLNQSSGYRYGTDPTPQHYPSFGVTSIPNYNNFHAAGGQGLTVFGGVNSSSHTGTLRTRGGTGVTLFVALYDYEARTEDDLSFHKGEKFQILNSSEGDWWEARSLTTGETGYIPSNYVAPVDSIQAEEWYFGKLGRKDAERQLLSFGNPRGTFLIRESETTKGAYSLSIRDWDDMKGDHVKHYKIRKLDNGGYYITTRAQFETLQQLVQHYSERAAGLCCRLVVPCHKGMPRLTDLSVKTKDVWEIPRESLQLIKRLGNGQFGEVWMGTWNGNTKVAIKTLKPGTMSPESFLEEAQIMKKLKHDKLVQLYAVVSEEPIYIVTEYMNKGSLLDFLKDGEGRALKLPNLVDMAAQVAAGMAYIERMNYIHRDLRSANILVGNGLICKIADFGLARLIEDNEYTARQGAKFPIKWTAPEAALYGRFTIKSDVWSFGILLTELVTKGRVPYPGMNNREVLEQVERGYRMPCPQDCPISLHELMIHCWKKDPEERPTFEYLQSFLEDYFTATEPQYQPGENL
Jak2, sequence (O60674 whole entry, looked up): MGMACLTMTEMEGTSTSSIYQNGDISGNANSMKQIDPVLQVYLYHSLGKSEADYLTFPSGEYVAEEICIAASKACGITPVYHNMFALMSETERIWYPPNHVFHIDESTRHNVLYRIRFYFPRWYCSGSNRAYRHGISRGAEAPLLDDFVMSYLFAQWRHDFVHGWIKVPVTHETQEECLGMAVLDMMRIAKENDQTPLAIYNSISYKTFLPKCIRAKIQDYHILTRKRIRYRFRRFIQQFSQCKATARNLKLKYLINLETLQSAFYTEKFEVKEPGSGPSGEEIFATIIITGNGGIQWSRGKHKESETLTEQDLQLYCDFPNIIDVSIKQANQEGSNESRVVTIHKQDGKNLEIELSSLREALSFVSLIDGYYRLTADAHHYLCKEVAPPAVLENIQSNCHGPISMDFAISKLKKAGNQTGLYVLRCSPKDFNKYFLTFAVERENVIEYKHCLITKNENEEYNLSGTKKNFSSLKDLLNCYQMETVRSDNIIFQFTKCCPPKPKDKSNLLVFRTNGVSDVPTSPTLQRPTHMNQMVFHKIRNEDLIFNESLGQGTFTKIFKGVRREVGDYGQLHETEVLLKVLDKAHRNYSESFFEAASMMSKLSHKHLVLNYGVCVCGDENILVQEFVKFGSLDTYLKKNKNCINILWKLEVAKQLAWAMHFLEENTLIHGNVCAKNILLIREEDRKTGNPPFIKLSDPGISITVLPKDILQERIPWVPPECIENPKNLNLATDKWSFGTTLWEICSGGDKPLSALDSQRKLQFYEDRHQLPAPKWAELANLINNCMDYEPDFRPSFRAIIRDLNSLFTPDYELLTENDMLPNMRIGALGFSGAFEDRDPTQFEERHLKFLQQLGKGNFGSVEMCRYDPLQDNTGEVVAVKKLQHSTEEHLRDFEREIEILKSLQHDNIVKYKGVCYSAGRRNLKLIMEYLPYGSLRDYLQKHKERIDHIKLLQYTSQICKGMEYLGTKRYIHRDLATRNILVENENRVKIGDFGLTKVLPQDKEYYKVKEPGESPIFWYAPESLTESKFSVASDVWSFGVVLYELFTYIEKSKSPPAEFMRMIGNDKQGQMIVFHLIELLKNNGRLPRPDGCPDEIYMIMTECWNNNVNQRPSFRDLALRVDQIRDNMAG
EPHB2, sequence (P29323 whole entry, looked up): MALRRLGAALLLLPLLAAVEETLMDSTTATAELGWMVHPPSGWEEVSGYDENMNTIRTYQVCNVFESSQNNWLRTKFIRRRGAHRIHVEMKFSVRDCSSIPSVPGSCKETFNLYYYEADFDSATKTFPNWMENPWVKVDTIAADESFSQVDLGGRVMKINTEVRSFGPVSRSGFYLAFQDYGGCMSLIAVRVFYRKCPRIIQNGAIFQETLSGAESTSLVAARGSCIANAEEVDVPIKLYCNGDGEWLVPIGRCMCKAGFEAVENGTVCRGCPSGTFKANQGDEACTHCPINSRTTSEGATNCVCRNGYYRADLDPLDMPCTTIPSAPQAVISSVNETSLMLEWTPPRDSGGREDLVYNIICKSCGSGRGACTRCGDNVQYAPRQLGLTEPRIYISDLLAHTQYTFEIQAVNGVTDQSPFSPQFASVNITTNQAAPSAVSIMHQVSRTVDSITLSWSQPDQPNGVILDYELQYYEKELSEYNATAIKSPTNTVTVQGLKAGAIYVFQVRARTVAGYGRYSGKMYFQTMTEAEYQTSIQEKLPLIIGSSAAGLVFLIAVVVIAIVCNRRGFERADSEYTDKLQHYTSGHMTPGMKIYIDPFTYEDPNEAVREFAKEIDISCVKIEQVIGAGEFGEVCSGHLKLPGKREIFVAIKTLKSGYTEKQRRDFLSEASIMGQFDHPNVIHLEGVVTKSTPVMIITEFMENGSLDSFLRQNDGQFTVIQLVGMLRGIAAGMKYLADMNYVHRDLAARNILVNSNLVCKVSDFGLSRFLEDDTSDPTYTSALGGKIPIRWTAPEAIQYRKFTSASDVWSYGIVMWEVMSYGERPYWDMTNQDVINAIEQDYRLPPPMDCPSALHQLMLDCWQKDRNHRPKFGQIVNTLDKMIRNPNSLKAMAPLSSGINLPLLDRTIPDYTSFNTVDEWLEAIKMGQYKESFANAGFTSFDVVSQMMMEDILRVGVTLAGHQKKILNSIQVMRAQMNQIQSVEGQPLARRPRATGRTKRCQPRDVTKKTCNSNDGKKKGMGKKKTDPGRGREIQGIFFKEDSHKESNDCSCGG

## TEALYYTDDTA [ADPRS_Y75]
AncSZ
  phosphorylation enrichment: 1.46
EPHB1
  phosphorylation enrichment: 1.31
EPHB2
  phosphorylation enrichment: 0.78
FGFR1
  phosphorylation enrichment: 3.91
FGFR3
  phosphorylation enrichment: 4.22
Fer (mouse)
  phosphorylation enrichment: 1.97
Fes
  phosphorylation enrichment: 2.09
Fyn
  phosphorylation enrichment: 2.63
Hck
  phosphorylation enrichment: 1.82
Jak2
  phosphorylation enrichment: 0.833
MERTK
  phosphorylation enrichment: 4.21
c-Abl (mouse)
  phosphorylation enrichment: 0.633
c-Src
  phosphorylation enrichment: 1.9
Grb2 SH2
  SH2 binding enrichment: 0.912
SHP2-C SH2
  SH2 binding enrichment: 0.847
c-Src SH2
  SH2 binding enrichment: 0.856

## TEDAEYDVQSK [PTCHD3_Y335_P333A]
AncSZ
  phosphorylation enrichment: 1.38
EPHB1
  phosphorylation enrichment: 0.611
EPHB2
  phosphorylation enrichment: 0.609
FGFR1
  phosphorylation enrichment: 0.515
FGFR3
  phosphorylation enrichment: 0.689
Fer (mouse)
  phosphorylation enrichment: 0.606
Fes
  phosphorylation enrichment: 1.14
Fyn
  phosphorylation enrichment: 0.539
Hck
  phosphorylation enrichment: 0.591
Jak2
  phosphorylation enrichment: 1.07
MERTK
  phosphorylation enrichment: 0.492
c-Abl (mouse)
  phosphorylation enrichment: 0.848
c-Src
  phosphorylation enrichment: 0.535
Grb2 SH2
  SH2 binding enrichment: 1.01
SHP2-C SH2
  SH2 binding enrichment: 0.698
c-Src SH2
  SH2 binding enrichment: 0.644

## TEQMAYCPIQC [SHC4_Y403]
AncSZ
  phosphorylation enrichment: 1.17
EPHB1
  phosphorylation enrichment: 0.434
EPHB2
  phosphorylation enrichment: 0.676
FGFR1
  phosphorylation enrichment: 0.609
FGFR3
  phosphorylation enrichment: 0.737
Fer (mouse)
  phosphorylation enrichment: 1.14
Fes
  phosphorylation enrichment: 1.02
Fyn
  phosphorylation enrichment: 0.421
Hck
  phosphorylation enrichment: 0.949
Jak2
  phosphorylation enrichment: 1.26
MERTK
  phosphorylation enrichment: 0.678
c-Abl (mouse)
  phosphorylation enrichment: 0.754
c-Src
  phosphorylation enrichment: 0.949
Grb2 SH2
  SH2 binding enrichment: 0.793
SHP2-C SH2
  SH2 binding enrichment: 0.643
c-Src SH2
  SH2 binding enrichment: 0.777

## TESALYGCTIL [MAP3K21_Y724_V728I]
AncSZ
  phosphorylation enrichment: 1.17
EPHB1
  phosphorylation enrichment: 0.68
EPHB2
  phosphorylation enrichment: 0.989
FGFR1
  phosphorylation enrichment: 0.5
FGFR3
  phosphorylation enrichment: 1.19
Fer (mouse)
  phosphorylation enrichment: 4.72
Fes
  phosphorylation enrichment: 1.62
Fyn
  phosphorylation enrichment: 6
Hck
  phosphorylation enrichment: 4.18
Jak2
  phosphorylation enrichment: 1.65
MERTK
  phosphorylation enrichment: 1.57
c-Abl (mouse)
  phosphorylation enrichment: 1.59
c-Src
  phosphorylation enrichment: 6.06
Grb2 SH2
  SH2 binding enrichment: 1
SHP2-C SH2
  SH2 binding enrichment: 0.625
c-Src SH2
  SH2 binding enrichment: 0.46

## TFAVSYLPDMS [FLNC_Y1602_T1599A_YF]
AncSZ
  phosphorylation enrichment: 0.939
EPHB1
  phosphorylation enrichment: 0.598
EPHB2
  phosphorylation enrichment: 0.392
FGFR1
  phosphorylation enrichment: 0.5
FGFR3
  phosphorylation enrichment: 0.816
Fer (mouse)
  phosphorylation enrichment: 0.439
Fes
  phosphorylation enrichment: 1.21
Fyn
  phosphorylation enrichment: 0.466
Hck
  phosphorylation enrichment: 0.5
Jak2
  phosphorylation enrichment: 0.741
MERTK
  phosphorylation enrichment: 0.441
c-Abl (mouse)
  phosphorylation enrichment: 0.61
c-Src
  phosphorylation enrichment: 0.378
Grb2 SH2
  SH2 binding enrichment: 0.905
SHP2-C SH2
  SH2 binding enrichment: 1.01
c-Src SH2
  SH2 binding enrichment: 0.566

## TFEYRYLEDRD [CNOT3_Y746]
AncSZ
  phosphorylation enrichment: 1.16
EPHB1
  phosphorylation enrichment: 0.623
EPHB2
  phosphorylation enrichment: 0.504
FGFR1
  phosphorylation enrichment: 0.935
FGFR3
  phosphorylation enrichment: 0.848
Fer (mouse)
  phosphorylation enrichment: 0.472
Fes
  phosphorylation enrichment: 1.35
Fyn
  phosphorylation enrichment: 0.545
Hck
  phosphorylation enrichment: 0.534
Jak2
  phosphorylation enrichment: 1.02
MERTK
  phosphorylation enrichment: 0.493
c-Abl (mouse)
  phosphorylation enrichment: 0.827
c-Src
  phosphorylation enrichment: 0.537
Grb2 SH2
  SH2 binding enrichment: 0.76
SHP2-C SH2
  SH2 binding enrichment: 0.81
c-Src SH2
  SH2 binding enrichment: 1.01

## TINPIHEHVGF [CHN1_Y143_Y143H_YF]
AncSZ
  phosphorylation enrichment: 0.433
EPHB1
  phosphorylation enrichment: 0.321
EPHB2
  phosphorylation enrichment: 0.346
FGFR1
  phosphorylation enrichment: 0.393
FGFR3
  phosphorylation enrichment: 0.441
Fer (mouse)
  phosphorylation enrichment: 0.397
Fes
  phosphorylation enrichment: 0.619
Fyn
  phosphorylation enrichment: 0.335
Hck
  phosphorylation enrichment: 0.299
Jak2
  phosphorylation enrichment: 0.429
MERTK
  phosphorylation enrichment: 0.328
c-Abl (mouse)
  phosphorylation enrichment: 0.477
c-Src
  phosphorylation enrichment: 0.339
Grb2 SH2
  SH2 binding enrichment: 0.813
SHP2-C SH2
  SH2 binding enrichment: 0.757
c-Src SH2
  SH2 binding enrichment: 0.519

## TKDTIYKQPMF [GBA_Y451_F450I]
AncSZ
  phosphorylation enrichment: 0.704
EPHB1
  phosphorylation enrichment: 0.503
EPHB2
  phosphorylation enrichment: 0.439
FGFR1
  phosphorylation enrichment: 0.406
FGFR3
  phosphorylation enrichment: 0.57
Fer (mouse)
  phosphorylation enrichment: 0.391
Fes
  phosphorylation enrichment: 0.821
Fyn
  phosphorylation enrichment: 0.502
Hck
  phosphorylation enrichment: 0.8
Jak2
  phosphorylation enrichment: 0.907
MERTK
  phosphorylation enrichment: 0.499
c-Abl (mouse)
  phosphorylation enrichment: 17.4
c-Src
  phosphorylation enrichment: 0.6
Grb2 SH2
  SH2 binding enrichment: 0.886
SHP2-C SH2
  SH2 binding enrichment: 1.15
c-Src SH2
  SH2 binding enrichment: 0.446

## TLARLYHPDST [LRIG1_Y1029]
AncSZ
  phosphorylation enrichment: 0.508
EPHB1
  phosphorylation enrichment: 0.422
EPHB2
  phosphorylation enrichment: 0.549
FGFR1
  phosphorylation enrichment: 0.344
FGFR3
  phosphorylation enrichment: 0.429
Fer (mouse)
  phosphorylation enrichment: 0.364
Fes
  phosphorylation enrichment: 0.743
Fyn
  phosphorylation enrichment: 0.575
Hck
  phosphorylation enrichment: 0.416
Jak2
  phosphorylation enrichment: 0.609
MERTK
  phosphorylation enrichment: 0.355
c-Abl (mouse)
  phosphorylation enrichment: 0.672
c-Src
  phosphorylation enrichment: 0.302
Grb2 SH2
  SH2 binding enrichment: 0.646
SHP2-C SH2
  SH2 binding enrichment: 0.681
c-Src SH2
  SH2 binding enrichment: 0.372

## TLEKYYFAFPG [SLC1A1_Y51_F50Y]
AncSZ
  phosphorylation enrichment: 1.75
EPHB1
  phosphorylation enrichment: 7.36
EPHB2
  phosphorylation enrichment: 11.1
FGFR1
  phosphorylation enrichment: 14.6
FGFR3
  phosphorylation enrichment: 12
Fer (mouse)
  phosphorylation enrichment: 0.632
Fes
  phosphorylation enrichment: 1.09
Fyn
  phosphorylation enrichment: 4.5
Hck
  phosphorylation enrichment: 3.38
Jak2
  phosphorylation enrichment: 8.54
MERTK
  phosphorylation enrichment: 11.5
c-Abl (mouse)
  phosphorylation enrichment: 9.74
c-Src
  phosphorylation enrichment: 6.16
Grb2 SH2
  SH2 binding enrichment: 1.06
SHP2-C SH2
  SH2 binding enrichment: 0.954
c-Src SH2
  SH2 binding enrichment: 0.614

## TLERHYKELQA [SPTBN2_Y834_E835K]
AncSZ
  phosphorylation enrichment: 0.713
EPHB1
  phosphorylation enrichment: 0.363
EPHB2
  phosphorylation enrichment: 0.546
FGFR1
  phosphorylation enrichment: 0.449
FGFR3
  phosphorylation enrichment: 0.509
Fer (mouse)
  phosphorylation enrichment: 0.415
Fes
  phosphorylation enrichment: 0.787
Fyn
  phosphorylation enrichment: 0.446
Hck
  phosphorylation enrichment: 0.375
Jak2
  phosphorylation enrichment: 0.704
MERTK
  phosphorylation enrichment: 0.571
c-Abl (mouse)
  phosphorylation enrichment: 0.612
c-Src
  phosphorylation enrichment: 0.472
Grb2 SH2
  SH2 binding enrichment: 0.773
SHP2-C SH2
  SH2 binding enrichment: 0.593
c-Src SH2
  SH2 binding enrichment: 0.493

## TLKDVYDDGKY [RPS6KA3_Y483]
AncSZ
  phosphorylation enrichment: 1.02
EPHB1
  phosphorylation enrichment: 0.51
EPHB2
  phosphorylation enrichment: 0.497
FGFR1
  phosphorylation enrichment: 0.557
FGFR3
  phosphorylation enrichment: 0.64
Fer (mouse)
  phosphorylation enrichment: 0.506
Fes
  phosphorylation enrichment: 1.12
Fyn
  phosphorylation enrichment: 0.58
Hck
  phosphorylation enrichment: 0.706
Jak2
  phosphorylation enrichment: 0.909
MERTK
  phosphorylation enrichment: 0.557
c-Abl (mouse)
  phosphorylation enrichment: 0.758
c-Src
  phosphorylation enrichment: 0.62
Grb2 SH2
  SH2 binding enrichment: 0.85
SHP2-C SH2
  SH2 binding enrichment: 0.737
c-Src SH2
  SH2 binding enrichment: 0.528

## TLKVGYTEKQR [EPHA3_Y659]
AncSZ
  phosphorylation enrichment: 0.417
EPHB1
  phosphorylation enrichment: 0.259
EPHB2
  phosphorylation enrichment: 0.299
FGFR1
  phosphorylation enrichment: 0.404
FGFR3
  phosphorylation enrichment: 0.351
Fer (mouse)
  phosphorylation enrichment: 0.386
Fes
  phosphorylation enrichment: 0.378
Fyn
  phosphorylation enrichment: 0.27
Hck
  phosphorylation enrichment: 0.353
Jak2
  phosphorylation enrichment: 0.407
MERTK
  phosphorylation enrichment: 0.322
c-Abl (mouse)
  phosphorylation enrichment: 0.369
c-Src
  phosphorylation enrichment: 0.328
Grb2 SH2
  SH2 binding enrichment: 1.08
SHP2-C SH2
  SH2 binding enrichment: 0.714
c-Src SH2
  SH2 binding enrichment: 0.486

## TLQSMSGCDVG [HLA-B_Y123_Y123S]
AncSZ
  phosphorylation enrichment: 0.677
EPHB1
  phosphorylation enrichment: 0.488
EPHB2
  phosphorylation enrichment: 0.601
FGFR1
  phosphorylation enrichment: 0.48
FGFR3
  phosphorylation enrichment: 0.932
Fer (mouse)
  phosphorylation enrichment: 0.499
Fes
  phosphorylation enrichment: 0.791
Fyn
  phosphorylation enrichment: 0.42
Hck
  phosphorylation enrichment: 0.482
Jak2
  phosphorylation enrichment: 1.38
MERTK
  phosphorylation enrichment: 0.421
c-Abl (mouse)
  phosphorylation enrichment: 0.536
c-Src
  phosphorylation enrichment: 0.406
Grb2 SH2
  SH2 binding enrichment: 0.836
SHP2-C SH2
  SH2 binding enrichment: 0.488
c-Src SH2
  SH2 binding enrichment: 0.491

## TLSGIYQYSIA [FOXL2_Y81_I84S]
AncSZ
  phosphorylation enrichment: 1.24
EPHB1
  phosphorylation enrichment: 2.73
EPHB2
  phosphorylation enrichment: 1.98
FGFR1
  phosphorylation enrichment: 0.952
FGFR3
  phosphorylation enrichment: 1.03
Fer (mouse)
  phosphorylation enrichment: 8.33
Fes
  phosphorylation enrichment: 0.899
Fyn
  phosphorylation enrichment: 4.22
Hck
  phosphorylation enrichment: 3.56
Jak2
  phosphorylation enrichment: 0.65
MERTK
  phosphorylation enrichment: 6.7
c-Abl (mouse)
  phosphorylation enrichment: 1.53
c-Src
  phosphorylation enrichment: 4.21
Grb2 SH2
  SH2 binding enrichment: 0.814
SHP2-C SH2
  SH2 binding enrichment: 1.83
c-Src SH2
  SH2 binding enrichment: 1.93

## TPIFPYLLPKS [PLD2_Y580_T577I_YF]
AncSZ
  phosphorylation enrichment: 0.632
EPHB1
  phosphorylation enrichment: 0.467
EPHB2
  phosphorylation enrichment: 0.463
FGFR1
  phosphorylation enrichment: 0.825
FGFR3
  phosphorylation enrichment: 1.57
Fer (mouse)
  phosphorylation enrichment: 0.551
Fes
  phosphorylation enrichment: 0.685
Fyn
  phosphorylation enrichment: 0.799
Hck
  phosphorylation enrichment: 0.64
Jak2
  phosphorylation enrichment: 0.723
MERTK
  phosphorylation enrichment: 0.538
c-Abl (mouse)
  phosphorylation enrichment: 0.7
c-Src
  phosphorylation enrichment: 0.489
Grb2 SH2
  SH2 binding enrichment: 0.877
SHP2-C SH2
  SH2 binding enrichment: 0.451
c-Src SH2
  SH2 binding enrichment: 0.393

— the supplement of paper PMC10065799, “High-throughput profiling of sequence recognition by tyrosine kinases and SH2 domains using bacterial peptide display” (eLife, 2023)
